Test results from the supplement of paper PMC10126150.
± gives the standard deviation of the averaged measurements.

Tested on: ATP
Assay: switch fluorescence ratio, 500 uM ATP over buffer (Cy3 cluster intensity, sum of 5 cycles each) (fold (ratio)); higher = stronger signal-on switching upon ATP binding; sequences stand for … in TCGTCGGCAGCGTCAGATGTGTATAAGAGACAGTTTTTTTTTTTTTTTTTTTTTTTTT…TC
Settings: aptamer strand: ATP DNA aptamer (quencher-CACCTGGGGGAGTATTGCGGAGGAAGG + anchor), 100 nM annealed; ATP concentration: 500 uM
Method in brief: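 Clusters with intensities outside 100-1000 RFU were excluded. The remaining Cy3-labelled switching-strand clusters on a modified Illumina MiSeq flow-cell had been annealed to 100 nM quencher-labelled ATP aptamer and imaged in selection buffer, then after 15 min with 500 uM ATP at 22 °C, for five cycles separated by NaOH stripping and re-annealing. The fluorescence ratio, averaged per switch-domain sequence, is each cluster's summed target-cycle Cy3 intensity over its summed buffer-cycle Cy3 intensity.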
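Also: ATP exposure 15 min at 22 °C before imaging.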

Point of comparison: TGTAATTGCT, switch fluorescence ratio 0.999 ± 0.022. Against it:
- TGGTTTAATG — within error, 0.997 ± 0.015
- TGGTTTACTC — within error, 1.14 ± 0.18
- TGGTTTAGGG — within error, 0.981 ± 0.026
- TGGTTTAGTT — within error, 0.998 ± 0.017
- TGGTTTATTG — within error, 1.01 ± 0.024
- TGGTTTCATT — within error, 1.01 ± 0.017
- TGGTTTCTTT — within error, 1.006 ± 0.0059
- TGGTTTGGCA — lower, 0.962 ± 0.012
- TGGTTTGGGG — within error, 0.974 ± 0.021
- TGGTTTTATA — within error, 0.969 ± 0.02
- TGGTTTTCGC — within error, 0.975 ± 0.023
- TGTAAAAAGT — within error, 1 ± 0.026
- TGTAAAATTT — within error, 0.988 ± 0.053
- TGTAACGGGA — within error, 1.01 ± 0.018
- TGTAAGGAAA — within error, 1.03 ± 0.013
- TGTAATTGGT — within error, 1.003 ± 0.0089
- TGTACTTTTT — within error, 1.02 ± 0.022
- TGTAGGAGAC — within error, 1.24 ± 0.33
- TGTAGGGATT — within error, 1.01 ± 0.054
- TGTAGTATGT — within error, 1 ± 0.012
- TGTAGTATTT — within error, 1 ± 0.013
- TGTAGTCTTT — within error, 1.03 ± 0.052
- TGTAGTTGGA — within error, 0.973 ± 0.032
- TGTATAAAAA — within error, 0.9906 ± 0.0039
- TGTATAAAGG — within error, 1.009 ± 0.0069
- TGTATAAAGT — within error, 0.986 ± 0.02
- TGTATAATTG — within error, 0.993 ± 0.017
- TGTATGGCTA — within error, 1.0085 ± 0.00081
- TGTATGGGAG — within error, 0.968 ± 0.02
- TGTATGGTAG — within error, 0.975 ± 0.025
- TGTATGTTAG — lower, 0.9477 ± 0.0061
- TGTATTTCGT — within error, 1.01 ± 0.011
- TGTATTTTTG — within error, 1.02 ± 0.029
- TGTCAGAGGG — within error, 1.01 ± 0.016
- TGTCAGGAAA — within error, 0.9717 ± 0.0065
- TGTCAGGGGG — within error, 1.01 ± 0.023
- TGTCAGTGGG — within error, 0.975 ± 0.034
- TGTCAGTTAT — within error, 0.979 ± 0.031
- TGTCATTCGC — higher, 1.047 ± 0.0074
- TGTCATTGGA — within error, 0.989 ± 0.017
- TGTCCACTAC — within error, 2.78 ± 2.3
- TGTCCGAGCA — higher, 1.75 ± 0.058
- TGTCCTAGCG — within error, 0.99 ± 0.024
- TGTCGCATTT — higher, 1.04 ± 0.012
- TGTCGGAGGG — within error, 0.973 ± 0.065
- TGTCGGCTGG — within error, 1.02 ± 0.052
- TGTCGGGGTT — within error, 0.9932 ± 0.0083
- TGTCGGTGTT — within error, 0.971 ± 0.029
- TGTCGGTTTT — within error, 0.996 ± 0.037
- TGTCGTAGGA — within error, 1.006 ± 0.0035
- TGTCGTTTTC — within error, 0.98 ± 0.03
- TGTCTTAGGA — the same, 0.999 ± 0.019
- TGTGAAAGAC — higher, 1.044 ± 0.003
- TGTGAAGTGG — within error, 1.02 ± 0.034
- TGTGAATTCG — within error, 1.01 ± 0.024
- TGTGACTAAG — within error, 0.9791 ± 0.0015
- TGTGAGGG — within error, 1.03 ± 0.036
- TGTGAGGGGA — within error, 1.01 ± 0.035
- TGTGAGGGTT — lower, 0.964 ± 0.012
- TGTGAGGTTC — lower, 0.9675 ± 0.0075
- TGTGAGTTGG — within error, 1 ± 0.029
- TGTGAGTTTA — within error, 0.978 ± 0.028
- TGTGAGTTTG — within error, 1.03 ± 0.013
- TGTGATGGGC — within error, 0.989 ± 0.026
- TGTGCGCGCT — within error, 0.995 ± 0.036
- TGTGCTGCTG — higher, 1.06 ± 0.02
- TGTGGAAAAA — within error, 1.011 ± 0.0081
- TGTGGACTGT — within error, 0.9855 ± 0.0015
- TGTGGAGCTT — higher, 1.07 ± 0.041
- TGTGGATAGG — within error, 1.03 ± 0.012
- TGTGGATTAT — within error, 0.988 ± 0.011
- TGTGGCACAC — within error, 1.01 ± 0.018
- TGTGGGAGCG — lower, 0.9542 ± 0.0021
- TGTGGGAGGG — within error, 0.998 ± 0.042
- TGTGGGGAAA — within error, 0.993 ± 0.03
- TGTGGGGGTT — within error, 0.986 ± 0.048
- TGTGGGTATT — within error, 1.01 ± 0.028
- TGTGGGTCGT — within error, 1.01 ± 0.026
- TGTGGTACCA — within error, 1.01 ± 0.023
- TGTGGTCGGT — within error, 1.015 ± 0.007
- TGTGGTGAA — within error, 1.01 ± 0.011
- TGTGGTTAGG — within error, 0.993 ± 0.035
- TGTGGTTTGT — within error, 1 ± 0.035
- TGTGGTTTTA — within error, 1 ± 0.033
- TGTGTAGGGG — within error, 1.04 ± 0.079
- TGTGTCCTAA — within error, 1.03 ± 0.026
- TGTGTCCTGC — within error, 0.965 ± 0.016
- TGTGTCGCGG — within error, 1 ± 0.033
- TGTGTCGCGT — within error, 0.983 ± 0.02
- TGTGTCTACA — within error, 1 ± 0.024
- TGTGTGACAC — within error, 0.998 ± 0.026
- TGTGTGAGGT — higher, 1.06 ± 0.027
- TGTGTGCGGT — within error, 0.997 ± 0.054
- TGTGTGGGAC — within error, 0.988 ± 0.025
- TGTGTGTGTT — within error, 1.02 ± 0.03
- TGTGTGTTGA — within error, 1.023 ± 0.0026
- TGTGTGTTGG — within error, 0.993 ± 0.024
- TGTGTTACGG — within error, 0.984 ± 0.023
- TGTGTTGGGT — within error, 0.98 ± 0.015
